Reference: article doi:10.1101/2021.03.25.436948

Target: Drosophila melanogaster GNPTAB homolog, luminal portion (residues 50-630) (Drosophila melanogaster)
Test: cryo-EM structure

Drosophila melanogaster GNPTAB homolog, luminal portion (residues 50-630) (domain or fragment)
stoichiometry N: 2
